From paper PMC10009755 (Journal of Medicinal Chemistry, 2023)

Biological target: T1, wild-type ubiquitin (UniProt P0CG48 1-76)
T1 construct: ubiquitin, the cut product of the ubiquitin precursors; called 'wild-type ubiquitin'
Test: SPR; USP21 immobilised by amine coupling on a CM5 chip; Biacore S200, A-B-A injection; 1 uM compound 18 as analyte A, then ubiquitin titrated in 1:2 dilutions from 25 uM; 15 °C
Conditions: both partners purified

binding result: binds
B1: human USP21 (Q9UK80, 209-563) (domain or fragment, UniProt Q9UK80 209-563, looked up)
chain: SGHVGLRNLGNTCFLNAVLQCLSSTRPLRDFCLRRDFRQEVPGGGRAQELTEAFADVIGALWHPDSCEAVNPTRFRAVFQKYVPSFSGYSQQDAQEFLKLLMERLHLEINRRGRRAPPILANGPVPSPPRRGGALLEEPELSDDDRANLMWKRYLEREDSKIVDLFVGQLKSCLKCQACGYRSTTFEVFCDLSLPIPKKGFAGGKVSLRDCFNLFTKEEELESENAPVCDRCRQKTRSTKKLTVQRFPRILVLHLNRFSASRGSIKKSSVGVDFPLQRLSLGDFASDKAGSPVYQLYALCNHSGSVHYGHYTALCRCQTGWHVYNDSRVSPVSENQVASSEGYVLFYQLMQEPPR
notes: cDNA optimized for expression in E. coli; The His tag is thrombin-cleavable; also called recombinant USP21; source: E. coli BL21(DE3), purified (Ni-NTA, MonoS cation exchange, SEC)
